Assay results as given in patent publication US5891438.

How the values were obtained:
[1] = target: human tonsillar B cells (CD20+ / CD19+, surface Ig); assay: flow cytometry, dual staining with biotinylated bacterial antigen
[2] = target: human tonsillar B cells (CD20+ / CD19+, surface Ig); assay: flow cytometry, biotinylated mod-SpA on tonsillar B cells; the pair that the inhibitors of Table 5 block

Substance: Protein G (from UniProt P19909)
- Protein G Binding (share of CD20 tonsillar cells) [1]: 9%

Substance: SpA modified by hyperiodination to destroy IgG Fc binding activity (mod-SpA) (from UniProt P38507)
- Binding (proportion of the total B cells bound by mod-SpA) [2]: 15

Substance: staphylococcal protein A (SpA), purified recombinant form (from UniProt P38507)
- SpA Binding (share of CD20 tonsillar cells) [1]: 29%
